Our source for the IC50 of inhibition of signalling by 5 nM GDF5, luciferase reporter in BRITER osteoblast cells values is paper PMC9893541.

For the assay, the target named is T1, GDF5 homodimer (human) (UniProt P43026).
T1 sequence: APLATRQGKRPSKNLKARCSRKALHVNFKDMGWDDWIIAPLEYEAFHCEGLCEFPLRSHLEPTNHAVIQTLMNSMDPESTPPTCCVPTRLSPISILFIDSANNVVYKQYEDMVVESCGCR

Chain of Noggin (Q13253 28-232): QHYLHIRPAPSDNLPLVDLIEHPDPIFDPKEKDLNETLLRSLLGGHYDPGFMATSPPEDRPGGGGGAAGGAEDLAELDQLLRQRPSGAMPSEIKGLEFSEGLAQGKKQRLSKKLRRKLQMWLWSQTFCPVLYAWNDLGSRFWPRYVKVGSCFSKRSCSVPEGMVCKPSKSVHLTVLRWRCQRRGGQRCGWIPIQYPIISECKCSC

Substance “Gremlin-2 (from UniProt O88273 22-168) (natural protein)” returned an IC50 of inhibition of signalling by 5 nM GDF5, luciferase reporter in BRITER osteoblast cells of 38 nM.

For “Noggin (from UniProt Q13253 28-232) (natural protein)”, the IC50 of inhibition of signalling by 5 nM GDF5, luciferase reporter in BRITER osteoblast cells was determined as 42 nM.
